Consider 17 molecules from article PMC10786891, “Massively parallel profiling of RNA-targeting CRISPR-Cas13d”.

Numbering of substitutions follows the chain as printed.

The chains are these.
T1: EsCas13d, nuclease-dead (Eubacterium siraeum, UniProt B0MS50, R295A;H300A;R849A;H854A)
T1 sequence: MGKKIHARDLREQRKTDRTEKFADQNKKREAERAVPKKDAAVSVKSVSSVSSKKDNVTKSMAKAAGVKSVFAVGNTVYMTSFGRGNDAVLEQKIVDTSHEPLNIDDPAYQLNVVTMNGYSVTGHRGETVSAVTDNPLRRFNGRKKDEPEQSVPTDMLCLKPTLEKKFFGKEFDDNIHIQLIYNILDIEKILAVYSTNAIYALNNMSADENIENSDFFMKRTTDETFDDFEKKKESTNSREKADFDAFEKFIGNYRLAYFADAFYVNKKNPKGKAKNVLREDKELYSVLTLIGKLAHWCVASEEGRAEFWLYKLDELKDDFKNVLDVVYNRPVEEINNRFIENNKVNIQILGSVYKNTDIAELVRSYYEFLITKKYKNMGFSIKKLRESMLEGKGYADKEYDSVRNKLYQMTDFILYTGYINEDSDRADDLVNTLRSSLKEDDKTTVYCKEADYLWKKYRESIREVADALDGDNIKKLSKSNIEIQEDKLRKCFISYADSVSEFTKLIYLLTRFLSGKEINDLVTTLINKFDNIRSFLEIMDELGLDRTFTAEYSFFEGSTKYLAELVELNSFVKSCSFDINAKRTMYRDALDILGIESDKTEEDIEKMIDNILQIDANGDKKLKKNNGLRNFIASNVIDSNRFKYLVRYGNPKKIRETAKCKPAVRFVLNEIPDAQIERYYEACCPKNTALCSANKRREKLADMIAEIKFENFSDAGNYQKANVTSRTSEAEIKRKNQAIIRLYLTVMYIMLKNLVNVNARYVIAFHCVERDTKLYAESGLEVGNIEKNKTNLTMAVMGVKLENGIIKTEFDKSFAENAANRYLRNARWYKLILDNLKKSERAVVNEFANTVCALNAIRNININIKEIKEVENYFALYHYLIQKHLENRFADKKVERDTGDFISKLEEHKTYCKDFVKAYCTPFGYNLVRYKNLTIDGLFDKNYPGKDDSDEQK

B1: target 1 insG 3' of 20,insU 3' of 12 (mixed)
RNA 1: CACCCGUGCAAAAAUGCAGGGGUCUAAAACUGAGCGGAUAACCUCUCUAUGG
RNA 2: GGGAAUGGAUCCACAUCUACGAAUUCGUACCAGUAGAGAGGUUUAUCCGCUCACCGAGAUCGGAAGAGCACACGU
B2: target 2 MT 5'PFS ACG 3'PFS ACG (mixed)
RNA 1: CACCCGUGCAAAAUUGCAGGGGUCUAAAACCUUCUCCAAAUUGUUUCAUCCU
RNA 2: GGGAAUGGAUCCACAUCUACGAAUUCACGAGGAUGAAACAAUUUGGAGAAGACGAGAUCGGAAGAGCACACGU
B3: target 2 MT 5'PFS UUU 3'PFS ACG (mixed)
RNA 1: B2 RNA 1
RNA 2: B2 RNA 2 with A27U, C28U, G29U
B4: target 2 MT 5'PFS UUU 3'PFS ACC (mixed)
RNA 1: B2 RNA 1
RNA 2: B2 RNA 2 with A27U, C28U, G29U, G54C
B5: target 2 MT 5'PFS UUU 3'PFS ACA (mixed)
RNA 1: B2 RNA 1
RNA 2: B2 RNA 2 with A27U, C28U, G29U, G54A
B6: target 2 MT 5'PFS AAU 3'PFS ACC (mixed)
RNA 1: B2 RNA 1
RNA 2: B2 RNA 2 with C28A, G29U, G54C
B7: target 2 MT 5'PFS GGC 3'PFS CGA (mixed)
RNA 1: B2 RNA 1
RNA 2: B2 RNA 2 with A27G, C28G, G29C, A52C, C53G, G54A
B8: target 2 MT 5'PFS UCU 3'PFS UUU (mixed)
RNA 1: B2 RNA 1
RNA 2: B2 RNA 2 with A27U, G29U, A52U, C53U, G54U
B9: target 2 MT 5'PFS GGC 3'PFS CGC (mixed)
RNA 1: B2 RNA 1
RNA 2: B2 RNA 2 with A27G, C28G, G29C, A52C, C53G, G54C
B10: target 2 MT 5'PFS CAU 3'PFS CAC (mixed)
RNA 1: B2 RNA 1
RNA 2: B2 RNA 2 with A27C, C28A, G29U, A52C, C53A, G54C
B11: target 2 MT 5'PFS CUU 3'PFS AUG (mixed)
RNA 1: B2 RNA 1
RNA 2: B2 RNA 2 with A27C, C28U, G29U, C53U
B12: target 2 MT 5'PFS CAU 3'PFS CAA (mixed)
RNA 1: B2 RNA 1
RNA 2: B2 RNA 2 with A27C, C28A, G29U, A52C, C53A, G54A
B13: target 2 MT 5'PFS UCG 3'PFS CUC (mixed)
RNA 1: B2 RNA 1
RNA 2: B2 RNA 2 with A27U, A52C, C53U, G54C
B14: target 2 MT 5'PFS UCG 3'PFS CUG (mixed)
RNA 1: B2 RNA 1
RNA 2: B2 RNA 2 with A27U, A52C, C53U
B15: target 2 MT 5'PFS ACG 3'PFS ACU (mixed)
RNA 1: B2 RNA 1
RNA 2: B2 RNA 2 with G54U
B16: target 2 MT 5'PFS UUU 3'PFS ACU (mixed)
RNA 1: B2 RNA 1
RNA 2: B2 RNA 2 with A27U, C28U, G29U, G54U
B17: target 2 MT 5'PFS GGC 3'PFS CGG (mixed)
RNA 1: B2 RNA 1
RNA 2: B2 RNA 2 with A27G, C28G, G29C, A52C, C53G

This series deals with T1, EsCas13d, nuclease-dead. The series is described as follows: crRNA (strand 1, pre-loaded); Mg2+; 40 mM Tris-HCl pH 7.5, 150 mM NaCl, 6 mM MgCl2, 1 mM DTT, 0.1% Tween-20, 0.2 mg/ml BSA; 25 C; 10 min per concentration, then washed. The note with it: tags: His6-TwinStrep-SUMO cleaved; N-terminal SNAP kept (SNAP-Surface 488); label: 3' end held by stalled T7 RNA polymerase.
The term Kd denotes a measure of binding affinity in units of concentration. For B1, the Kd is 25 ± 4 nM. For B2, the Kd came out at 15 ± 4 nM.

Molecule B3 displayed a Kd of 10.6 ± 2 nM. Take B4: the Kd turned out to be 14.1 ± 3.4 nM. With B5, the Kd was determined as 6.1 ± 0.7 nM. Against the preceding molecule, the Kd is about 2.3-fold lower. Consider B6, for which the Kd turned out to be 10.5 ± 1.6 nM. This Kd is about 1.7-fold higher than that of the molecule before.

For B7, the Kd amounted to 11.4 ± 1.2 nM. In the case of B8 it was 10.3 ± 1 nM; in that of B9, 12.5 ± 1.1 nM. B10 had a Kd of 4.6 ± 0.8 nM.

For the molecule B11, the Kd was found to be 4.1 ± 0.4 nM. For the molecule B12, the affinity, expressed as Kd, was 5.2 ± 0.9 nM. The molecule B13 showed a Kd of 23 ± 6 nM.

B14 had a Kd of 40 ± 9 nM. For B15, the Kd came to 17 ± 5 nM. This Kd is about 2.4-fold lower than that of the molecule before. As to B16, the Kd is 9.1 ± 0.8 nM. The result for B17 reads 14.1 ± 1.7 nM.
